Values belong to the molecule of their own block, whether it stands above or below them.
Tests used:
ob/ob mice = experiment: In vivo effect of iv LMF in obese ob/ob mice; set-up: species or system mouse
Method: (§1) Non-esterified fatty acids (NEFA) were determined using a Wako-ASC-ACOD kit (Wako Chemical GmbH, Neuss, Germany). Triglycerides were determined using a Triglyceride kit (Sigma Chemical Co., Poole, United Kingdom) and 3-hydroxybutyrate by a quantitative enzymatic determination kit (Sigma). Glucose was measured using a glucose analyser (Beckman, Irvine, Calif.) and glycerol was determined enzymatically using the method of Wieland as described in “Methods of Enzymatic Analysis” (Ed. Bergmeyer, H. U.) Vol. 3, pp 1404-1409, published by Academic Press, London (1974) (reference 13).
FIG. 11 is a diagram similar to FIG. 10 showing change in body weight of ob/ob mice produced by iv administration of LMF (35 μg) (o) isolated from human urine as described in Example 2 and of control mice (x) administered PBS by iv injection. LMF was injected at times 0, 16, 24, 40, 48, 64, 72, 90, 96, 113, 120, 137 and 144 h; PBS was injected at the same time points. The animals were killed 160 h after the first injection. Results are expressed as mean±SEM for 5 animals per group.
As shown in FIG. 11 and by the data in Table 6, intravenous administration to obese ob/ob mice of LMF (35 μg) isolated from human urine produced a similar result. There was a decrease in total body weight which became significant within 24 h of the first injection and remained below that of the control group over the 160 h of the experiment.

[1] = tested on: murine adipocyte plasma membrane adenylate cyclase; experiment: Adenylate cyclase assay with adipocyte plasma membranes; type: biochemical, mouse; details: GTP-dependent stimulation
Method: In a typical procedure white adipocytes were isolated from mouse epididymal fat pads as referred to above except that the cells were washed in 250 mM sucrose, 2 mM ethyleneglycol bis(β-aminoethylether)-N,N,N′,N′ (EGTA), 10 mM Tris-HCl (pH 7.4). Adipocytes were resuspended in 20 ml of the above buffer and homogenised by aspirating through a Swinny filter at least 10 times. The cell homogenate was then centrifuged at 300 g for 5 min, the fat cake removed from the surface and the remaining pellet and infranatant transferred to clean tubes. These were centrifuged at 30,000 g for 1 h at 4° C. and the membrane pellet formed was resuspended in the sucrose buffer (200 to 400 μl). Plasma membranes were separated from other organelle membranes on a self-forming gradient of Percoll™ colloidial silica particles. […]
An adenylate cyclase assay used was based on that developed by Salomon et al. (reference 16). […] Background binding was determined by running samples without [α-^32P] […]
Samples containing labelled nucleotides were diluted to 1 ml with water and loaded onto Dowex™ 50W8-400 ion-exchange columns primed with 10 ml of water. […] The radioactivity was determined using a Tri-carb™ 2000A scintillation analyser.

[2] = tested on: ex-breeder male NMRI mice; experiment: In vivo fat depletion, iv LMF in ex-breeder male NMRI mice; set-up: species or system mouse
Method: as §1
FIG. 10 is a diagram showing change in body weight of ex-breeder male NMRI mice (30-40 g) produced by intravenous (iv) administration of LMF (8 μg) isolated from human urine as described in Example 2 (o) and of control mice administered PBS by iv injection (x).
In order to determine if the purified LMF isolated from human urine as in Example 2 was capable of fat depletion in vivo a sample of this LMF material ([…]) was injected into male ex breeder NMRI mice over a 72 h period. The LMF was injected at times 0, 17, 24, 41, 48, 62 and 72 hours and control mice were similarly injected with phosphate-buffered saline (PBS) at the same time points. The animals were killed at 89 h and the body composition and serum metabolite levels were determined. […] Changes in the body composition and serum metabolic levels are summarised in Table 5 and it will be seen that total body weight decreased by 3.6 g during the overall 89 h period of the experiment without change in food and water intake. […] Despite the fat mobilisation there were significant reductions in the serum concentrations of non-esterified fatty acids (NEFA), glycerol and glucose in mice receiving LMF.

[3] = tested on: murine epididymal adipocytes; experiment: Lipolytic assay: glycerol release from isolated adipocytes; type: cell-based, mouse; details: for Lipid mobilizing activity, glycerol released: 5 μg human or 10 μg mouse LMF, incubated overnight at 4° C. with or without pAb 10 μg, mean±SEM, three determinations; for Stimulation of glycerol release (lipolysis): different doses, freshly isolated murine epididymal adipocytes, FIG. 9; for Specific activity: purified product after final stage HPLC Resource-iso
Method: Single cell suspensions of white adipocytes were prepared from finely minced epididymal fat pads of male BKW mice using collagenase digestion, substantially as described by S. A. Beck et al. (see above-mentioned reference 14). Samples to be assayed were incubated with 10^5-2×10^5 adipocytes (determined by means of a haemocytometer) for 2 h at 37° C. in 1 ml of Krebs-Ringer bicarbonate buffer, pH 7.2. The concentration of glycerol released was determined enzymatically by the method of Wieland as referred to above (see also GB2217330A). Control samples containing adipocytes alone were analyzed to determine the spontaneous glycerol release. Lipid mobilizing activity was expressed as μmol glycerol released/10^5 adipocytes/2 h.

[4] = LMF 35 μg iv, 160 h after first injection
[5] = LMF 8 μg iv over 72 h, killed at 89 h

GTP concentration at maximal stimulation of adenylate cyclase [1]: 0.1 µM
B1: Human LMF: 43 kDa glycoprotein lipid mobilising factor purified from urine of cachectic cancer patients (Example 2); Zn-α2-glycoprotein type (protein, UniProt P25311 21-298, looked up)
Zinc-alpha-2-glycoprotein: QENQDGRYSLTYIYTGLSKHVEDVPAFQALGSLNDLQFFRYNSKDRKSQPMGLWRQVEGMEDWKQDSQLQKAREDIFMETLKDIVEYYNDSNGSHVLQGRFGCEIENNRSSGAFWKYYYDGKDYIEFNKEIPAWVPFDPAAQITKQKWEAEPVYVQRAKAYLEEECPATLRKYLKYSKNILDRQDPPSVVVTSHQAPGEKKKLKCLAYDFYPGKIDVHWTRAGEVQEPELRGDVLHNGNGTYQSWVVVAVPPQDTAPYSCHVQHSSLAQPLVVPWEAS
Final body weight (ob/ob mice; LMF 35 μg iv, 13 injections over 144 h, 160 h after first injection, mean±SEM, 5 mice): 69.5 ± 4.3 g | Body composition: Fat (ob/ob mice; [4]): 30.6 ± 0.7% | Body composition: Non Fat (ob/ob mice; [4]): 17.4 ± 1.0% | Body composition: Water (ob/ob mice; [4]): 53.7 ± 1.1% | Glucose (ob/ob mice; [4]): 260 ± 12 mg/100 ml | Oxygen uptake (ob/ob mice; [4]): 0.55 ± 0.07 μl/mgBAT/h | Serum 3-Hydroxybutyrate (ob/ob mice; [4]): 0.44 ± 0.01 mM | Serum Glycerol (ob/ob mice; [4]): 5.31 ± 0.45 mM | Serum NEFA (ob/ob mice; [4]): 1.45 ± 0.45 mEq/l | Carcass fat (ob/ob mice; LMF 35 μg iv, body composition analysis at 160 h): 21.09 ± 0.99 g | Time until decrease in total body weight became significant (ob/ob mice; after the first injection, FIG. 11): ≤ 24 h | Initial body weight (ob/ob mice; baseline before first injection): 67.9 ± 2.9 g | Food intake ([2]; LMF 8 μg iv over 72 h): 8.0 ± 0.2 g/day | Water intake ([2]; LMF 8 μg iv over 72 h): 4.4 ± 0.4 mL/day | Body composition: Fat [2, 5]: 3.4 ± 0.4 g | Body composition: Non Fat [2, 5]: 9.6 ± 0.9 g | Body composition: Water [2, 5]: 18.3 ± 0.8 g | Serum Glucose [2, 5]: 186 ± 0.08 mg/100 ml | Serum Glycerol [2, 5]: 6.73 ± 0.45 mM | Serum NEFA [2, 5]: 0.95 ± 0.03 mEq/l | Final body weight ([2]; LMF 8 μg iv, 7 injections over 72 h, killed at 89 h, mean±SEM, 5 mice): 31.6 ± 2.2 g | Time until body weight significantly lower than PBS treated controls ([2]; LMF iv, FIG. 10): ≤ 41 h | Reduction in body fat content ([2]; body composition analysis at 89 h): 42% | Decrease in total body weight ([2]; overall 89 h period, no change in food and water intake): 3.6 g | Lipid mobilizing activity, glycerol released [3]: 0.0062 ± 0.0002 μmole glycerol/10^5 adipocytes/2 h | Stimulation of glycerol release (lipolysis) [3]: stimulated glycerol release with a comparable dose-response profile | Specific activity [3]: 164.3 μmol/10^5 adipocytes/mg protein | Effect of α-chymotrypsin digestion on in vitro biological activity ([3]; α-chymotrypsin digestion): chymotrypsin destroyed the in vitro biological activity

GTP concentration at maximal stimulation of adenylate cyclase [1]: 0.1 µM
B2: Zn-α2-glycoprotein (protein, listed as Homo sapiens)
chain: QENQDGRYSLTYIYTGLSKHVEDVPAFQALGSLNDLQFFRYNSKDRKSQPMGLWRQVEGMEDWKEDSQLQKAREDMETLKDIVEYYNDSNGSHVLQGRFGCEIENNRSSGAFWKYYYDGKDYIEFNKEIPAWVPFDPAAQITKQKWEAEPVYVQRAKAYLEEECPATLRKYLKYSKNILDRQDPPSVVVTSHQAPGEKKKLKCLAYDFYPGKIDVHWTRAGQVQEPELRGDVLHNGNGTYQSWVVVAVPPQDTAPYSCHVQHSSLAQPLVVPWEAS
notes: Zn-α2-glycoprotein purified about 670-fold from fresh human plasma by the method of Ohkubo et al
Stimulation of glycerol release (lipolysis) [3]: stimulated glycerol release with a comparable dose-response profile

B3: Mouse LMF: 43 kDa glycoprotein lipid mobilising factor purified from murine adenocarcinoma MAC16 (Example 1) (protein, UniProt Q64726 18-307, looked up)
Zinc-alpha-2-glycoprotein: QETGSYYLTFLYTGLSRPSKGFPRFQATAFLNDQAFFHYNSNSGKAEPVGPWSQVEGMEDWEKESQLQRAREEIFLVTLKDIMDYYKDTTGSHTFQGMFGCEITNNRSSGAVWRYAYDGEDFIEFNKEIPAWIPLDPAAANTKLKWEAEKVYVQRAKAYLEEECPEMLKRYLNYSRSHLDRIDPPTVTITSRVIPGGNRIFKCLAYGFYPQRISLHWNKANKKLAFEPERGVFPNGNGTYLSWAEVEVSPQDIDPFFCLIDHRGFSQSLSVQWDRTRKVKDENNVVAQPQ
Lipid mobilizing activity, glycerol released [3]: 0.0977 ± 0.02 μmole glycerol/10^5 adipocytes/2 h | Specific activity [3]: 50 μmol/10^5 adipocytes/mg protein

— patent US7550429B2, “Glycoproteins having lipid mobilising properties and therapeutic applications thereof” (Aston University, priority 1998, dated 2009)
